# Test results: PMC2756588
# T1: Abp1, P15891
# T1 sequence (P15891 535-592, looked up): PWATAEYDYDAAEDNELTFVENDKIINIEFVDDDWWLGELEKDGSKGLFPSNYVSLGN
# T2: Bbc1, P47068
# T2 sequence (P47068 1-78, looked up): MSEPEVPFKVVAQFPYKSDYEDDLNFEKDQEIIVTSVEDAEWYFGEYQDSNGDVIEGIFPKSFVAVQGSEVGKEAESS
# T3: Boi1, P38041
# T3 sequence (P38041 1-86, looked up): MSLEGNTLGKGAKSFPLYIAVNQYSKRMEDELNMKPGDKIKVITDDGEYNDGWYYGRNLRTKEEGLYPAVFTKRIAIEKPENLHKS
# T4: Boi2, P39969
# T4 sequence (P39969 32-116, looked up): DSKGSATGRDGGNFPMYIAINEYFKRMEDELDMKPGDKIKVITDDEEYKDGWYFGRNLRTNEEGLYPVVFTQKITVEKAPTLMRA
# T5: Bud14, P27637
# T5 sequence (P27637 247-328, looked up): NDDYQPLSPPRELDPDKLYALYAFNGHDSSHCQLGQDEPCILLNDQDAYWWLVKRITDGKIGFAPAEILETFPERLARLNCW
# T6: Bzz1-1, P38822
# T6 sequence (P38822 478-572, looked up): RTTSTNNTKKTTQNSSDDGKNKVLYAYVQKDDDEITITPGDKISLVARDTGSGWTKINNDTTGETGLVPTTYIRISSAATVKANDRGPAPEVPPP
# T7: Bzz1-2, P38822
# T7 sequence (P38822 568-633, looked up): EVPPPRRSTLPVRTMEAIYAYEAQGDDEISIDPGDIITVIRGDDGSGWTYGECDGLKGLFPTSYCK
# T8: Cdc25, P04821
# T8 sequence (P04821 50-136, looked up): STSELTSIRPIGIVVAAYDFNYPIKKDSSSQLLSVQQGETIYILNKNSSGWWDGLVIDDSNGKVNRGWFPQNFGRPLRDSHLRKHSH
# T9: Cyk3, Q07533
# T9 sequence (Q07533 1-83, looked up): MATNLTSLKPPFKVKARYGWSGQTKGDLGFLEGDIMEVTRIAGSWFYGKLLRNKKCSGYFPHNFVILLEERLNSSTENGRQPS
# T10: Fus1, P11710
# T10 sequence (P11710 432-512, looked up): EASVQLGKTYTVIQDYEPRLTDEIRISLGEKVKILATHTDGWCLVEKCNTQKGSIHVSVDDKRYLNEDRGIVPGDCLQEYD
# T11: Hof1, Q05080
# T11 sequence (Q05080 590-669, looked up): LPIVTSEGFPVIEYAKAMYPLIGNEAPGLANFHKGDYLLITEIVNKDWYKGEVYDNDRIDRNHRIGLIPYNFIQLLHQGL
# T12: Hse1, P38753
# T12 sequence (P38753 208-285, looked up): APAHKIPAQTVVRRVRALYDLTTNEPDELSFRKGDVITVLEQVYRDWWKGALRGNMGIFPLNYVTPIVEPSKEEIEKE
# T13: Lsb1, P53281
# T13 sequence (P53281 45-122, looked up): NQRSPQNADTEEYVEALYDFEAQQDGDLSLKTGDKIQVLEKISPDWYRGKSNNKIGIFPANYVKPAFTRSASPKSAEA
# T14: Lsb3, P43603
# T14 sequence (P43603 385-451, looked up): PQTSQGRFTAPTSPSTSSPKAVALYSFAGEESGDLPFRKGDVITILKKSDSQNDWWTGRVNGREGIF
# T15: Lsb4, P32793
# T15 sequence (P32793 402-468, looked up): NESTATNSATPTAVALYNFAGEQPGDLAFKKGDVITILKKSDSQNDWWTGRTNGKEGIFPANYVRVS
# T16: Myo5, Q04439
# T16 sequence (Q04439 1072-1160, looked up): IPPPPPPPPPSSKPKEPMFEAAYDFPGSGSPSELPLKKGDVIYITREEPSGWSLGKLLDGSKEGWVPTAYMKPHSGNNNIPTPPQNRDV
# T17: Nbp2, Q12163
# T17 sequence (Q12163 103-180, looked up): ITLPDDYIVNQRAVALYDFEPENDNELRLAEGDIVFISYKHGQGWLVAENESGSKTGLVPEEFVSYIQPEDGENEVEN
# T18: Pex13, P80667
# T18 sequence (P80667 295-386, looked up): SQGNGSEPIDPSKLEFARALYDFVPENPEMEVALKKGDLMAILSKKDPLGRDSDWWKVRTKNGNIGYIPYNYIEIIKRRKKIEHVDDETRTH
# T19: Pin3, Q06449
# T19 sequence (Q06449 53-122, looked up): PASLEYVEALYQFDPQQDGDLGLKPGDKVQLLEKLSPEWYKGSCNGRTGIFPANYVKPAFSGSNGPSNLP
# T20: Sla1-2, P32790
# T20 sequence (P32790 60-140, looked up): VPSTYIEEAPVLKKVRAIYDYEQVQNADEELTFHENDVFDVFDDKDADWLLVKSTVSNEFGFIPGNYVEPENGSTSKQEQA
# T21: Sla1-3, P32790
# T21 sequence (P32790 344-424, looked up): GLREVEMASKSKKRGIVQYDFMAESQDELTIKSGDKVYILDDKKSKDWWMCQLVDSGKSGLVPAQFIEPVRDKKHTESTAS
# Experiments:
# Experiment in all cases: SPOT array
# Abp1, P15891 = molecular target: T1, Abp1, P15891; settings: median of control spots 935
# Bbc1, P47068 = molecular target: T2, Bbc1, P47068; settings: median of control spots 796
# Bem1-1, P29366 = settings: median of control spots 4282
# Chain of Bem1-1, P29366 (P29366 55-141): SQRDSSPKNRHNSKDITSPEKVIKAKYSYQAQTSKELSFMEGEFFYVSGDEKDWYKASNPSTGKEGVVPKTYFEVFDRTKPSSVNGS
# Bem1-2, P29366 = settings: median of control spots 4347
# Chain of Bem1-2, P29366 (P29366 139-227): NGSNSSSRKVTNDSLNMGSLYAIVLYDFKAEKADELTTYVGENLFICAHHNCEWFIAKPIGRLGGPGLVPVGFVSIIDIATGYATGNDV
# Boi1, P38041 = molecular target: T3, Boi1, P38041; settings: median of control spots 1162
# Boi2, P39969 = molecular target: T4, Boi2, P39969; settings: median of control spots 1161
# Bud14, P27637 = molecular target: T5, Bud14, P27637; settings: median of control spots 956
# Bzz1-1, P38822 = molecular target: T6, Bzz1-1, P38822; settings: median of control spots 4446
# Bzz1-2, P38822 = molecular target: T7, Bzz1-2, P38822; settings: median of control spots 4538
# Cdc25, P04821 = molecular target: T8, Cdc25, P04821; settings: median of control spots 969
# Cyk3, Q07533 = molecular target: T9, Cyk3, Q07533; settings: median of control spots 1451
# Fus1, P11710 = molecular target: T10, Fus1, P11710; settings: median of control spots 1200
# GST = settings: median of control spots 978
# Hof1, Q05080 = molecular target: T11, Hof1, Q05080; settings: median of control spots 4086
# Hse1, P38753 = molecular target: T12, Hse1, P38753; settings: median of control spots 1727
# Lsb1, P53281 = molecular target: T13, Lsb1, P53281; settings: median of control spots 388
# Lsb3, P43603 = molecular target: T14, Lsb3, P43603; settings: median of control spots 406
# Lsb4, P32793 = molecular target: T15, Lsb4, P32793; settings: median of control spots 397
# Myo3, P36006 = settings: median of control spots 468
# Myo5, Q04439 = molecular target: T16, Myo5, Q04439; settings: median of control spots 471
# Nbp2, Q12163 = molecular target: T17, Nbp2, Q12163; settings: median of control spots 357
# Pex13, P80667 = molecular target: T18, Pex13, P80667; settings: median of control spots 1341
# Pin3, Q06449 = molecular target: T19, Pin3, Q06449; settings: median of control spots 2171
# Rvs167, P39743 = settings: median of control spots 2707
# Chain of Rvs167, P39743 (P39743 419-482): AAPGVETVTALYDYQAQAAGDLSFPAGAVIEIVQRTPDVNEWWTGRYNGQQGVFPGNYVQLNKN
# Sho1, P40073 = settings: median of control spots 1148
# Chain of Sho1, P40073 (P40073 287-367): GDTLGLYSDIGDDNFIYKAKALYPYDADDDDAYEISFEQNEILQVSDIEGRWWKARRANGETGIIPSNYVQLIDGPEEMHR
# Sla1-2, P32790 = molecular target: T20, Sla1-2, P32790; settings: median of control spots 712
# Sla1-3, P32790 = molecular target: T21, Sla1-3, P32790; settings: median of control spots 5475
Binder,"SPOT intensity (Abp1, P15891)","SPOT intensity (Bbc1, P47068)","SPOT intensity (Bem1-1, P29366)","SPOT intensity (Bem1-2, P29366)","SPOT intensity (Boi1, P38041)","SPOT intensity (Boi2, P39969)","SPOT intensity (Bud14, P27637)","SPOT intensity (Bzz1-1, P38822)","SPOT intensity (Bzz1-2, P38822)","SPOT intensity (Cdc25, P04821)","SPOT intensity (Cyk3, Q07533)","SPOT intensity (Fus1, P11710)",SPOT intensity (GST),"SPOT intensity (Hof1, Q05080)","SPOT intensity (Hse1, P38753)","SPOT intensity (Lsb1, P53281)","SPOT intensity (Lsb3, P43603)","SPOT intensity (Lsb4, P32793)","SPOT intensity (Myo3, P36006)","SPOT intensity (Myo5, Q04439)",further results
VPPPMQPPPIESSNL,85,0,0,0,1,0,0,0,0,0,1,1,0,0,0,99,0,48,318,167,"SPOT intensity (Nbp2, Q12163): 6; SPOT intensity (Pex13, P80667): 27; SPOT intensity (Pin3, Q06449): 114; SPOT intensity (Rvs167, P39743): 0; SPOT intensity (Sho1, P40073): 0; SPOT intensity (Sla1-2, P32790): 2; SPOT intensity (Sla1-3, P32790): 0"
NPTKSPPPPPSPSTM,28,0,1,0,0,0,2,124,253,3,1,1,1,0,0,0,0,4,436,223,"SPOT intensity (Nbp2, Q12163): 0; SPOT intensity (Pex13, P80667): 43; SPOT intensity (Pin3, Q06449): 109; SPOT intensity (Rvs167, P39743): 0; SPOT intensity (Sho1, P40073): 2; SPOT intensity (Sla1-2, P32790): 0; SPOT intensity (Sla1-3, P32790): 1"
MSPLGAPPPPPHKDH,0,0,0,0,0,0,0,0,1,0,0,0,1,0,0,0,0,0,245,108,"SPOT intensity (Nbp2, Q12163): 0; SPOT intensity (Pex13, P80667): 0; SPOT intensity (Pin3, Q06449): 0; SPOT intensity (Rvs167, P39743): 0; SPOT intensity (Sho1, P40073): 0; SPOT intensity (Sla1-2, P32790): 0; SPOT intensity (Sla1-3, P32790): 0"
PPIPNAPLSPAPAVP,0,0,0,0,0,0,2,0,1,2,0,0,0,0,0,0,0,0,483,443,"SPOT intensity (Nbp2, Q12163): 0; SPOT intensity (Pex13, P80667): 1; SPOT intensity (Pin3, Q06449): 0; SPOT intensity (Rvs167, P39743): 0; SPOT intensity (Sho1, P40073): 0; SPOT intensity (Sla1-2, P32790): 0; SPOT intensity (Sla1-3, P32790): 0"
APPLPPTAPPPPSLP,0,0,0,89,0,0,0,0,0,2,0,0,1,51,12,0,0,0,537,559,"SPOT intensity (Nbp2, Q12163): 0; SPOT intensity (Pex13, P80667): 4; SPOT intensity (Pin3, Q06449): 0; SPOT intensity (Rvs167, P39743): 0; SPOT intensity (Sho1, P40073): 0; SPOT intensity (Sla1-2, P32790): 0; SPOT intensity (Sla1-3, P32790): 3"
MFLISPPASPPPEFD,0,0,0,0,2,0,0,0,0,2,1,0,0,1,0,0,0,0,326,219,"SPOT intensity (Nbp2, Q12163): 0; SPOT intensity (Pex13, P80667): 12; SPOT intensity (Pin3, Q06449): 65; SPOT intensity (Rvs167, P39743): 0; SPOT intensity (Sho1, P40073): 0; SPOT intensity (Sla1-2, P32790): 0; SPOT intensity (Sla1-3, P32790): 0"
